The text below walks through data of patent publication US20110237779A1.

The target in the assay is human IgE (human) (UniProt P01854). Put plainly: phage ELISA, solution competition: Fab-phage incubated with serially diluted IgE, unbound phage captured on IgE-coated wells; IC50 used as affinity estimate.
Sequence of human IgE (human) (P01854 other isoform, or with tags, fused parts or gaps): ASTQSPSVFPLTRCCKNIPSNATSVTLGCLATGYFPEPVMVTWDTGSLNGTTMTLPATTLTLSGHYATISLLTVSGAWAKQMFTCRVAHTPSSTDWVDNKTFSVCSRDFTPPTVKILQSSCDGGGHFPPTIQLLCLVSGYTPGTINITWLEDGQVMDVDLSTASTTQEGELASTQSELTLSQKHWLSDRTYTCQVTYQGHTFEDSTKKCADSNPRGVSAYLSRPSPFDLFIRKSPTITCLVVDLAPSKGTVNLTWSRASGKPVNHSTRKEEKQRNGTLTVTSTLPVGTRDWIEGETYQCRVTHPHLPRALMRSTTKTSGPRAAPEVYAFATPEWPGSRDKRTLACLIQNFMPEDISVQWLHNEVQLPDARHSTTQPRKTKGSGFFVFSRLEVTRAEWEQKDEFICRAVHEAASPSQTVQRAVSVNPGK

Usually IC50 stands for the concentration needed to halve the response being measured. As to “Mae11-based hypervariable region graft with S34K and W35L in CDR-H1 of the VH domain (Fab displayed on phage)”, the 50% inhibitory concentration (IC50) was 4 nM.
